PMC8935074, “Phosphorylated and Phosphomimicking Variants May Differ—A Case Study of 14-3-3 Protein” (Frontiers in Chemistry, 2022)

Legend:
14-3-3ζ [1] = target: 14-3-3ζ (UniProt P63104); test: AUC sedimentation velocity, 36.5 μM; conditions: sites S58
14-3-3ζ [2] = target: 14-3-3ζ (UniProt P63104); test: SEC-RALS, 36.5 μM; conditions: sites S58
14-3-3ζ WT [3] = target: 14-3-3ζ WT (UniProt P63104); test: AUC; sedimentation velocity, 1 mg/mL (36.5 μM) protein in 50 mM Tris-HCl, 300 mM NaCl, 3 mM NaN3, pH 8, 20°C, 50,000 RPM, c(s) distribution; dimer to monomers
14-3-3ζ WT [4] = target: 14-3-3ζ WT (UniProt P63104); test: SEC-RALS; size-exclusion chromatography with right-angle light scattering, 1 mg/mL (36.5 μM) protein in PBS pH 7.4, Zenix SEC 300 column, 20°C; dimer to monomers
14-3-3ζ L12E_M78K = 14-3-3ζ L12E_M78K (UniProt P63104); test: SEC-RALS; 5 mg/mL (183 μM) pζ and ζm in PBS pH 7.4, 20°C, triplicates; KD of dimerisation estimated from the protein percentage in the dimeric and monomeric peaks; dimer to monomers
[5] = target: 14-3-3ζ phosphorylated at Ser58 (UniProt P63104); test: as above
[6] = target: the molecule itself; test: FRET or BRET; kinetic FRET assay in a cuvette: 200 nM AF647-labelled plus 200 nM AF488-labelled ζ_S58E_Ntail, then 100-fold excess of non-labelled ζ_S58E; 20 mM sodium phosphate pH 6.8, 15°C; profile fitted for KD and koff; dimer to monomers
FRET; 15°C = target: the molecule itself; test: FRET; 15°C
[7] = target: the molecule itself; test: SEC-RALS; 4.5 mg/mL (164 μM) ζ_S58D and ζ_S57D_S58D in PBS pH 7.4, 20°C, triplicates; KD of dimerisation calculated from the observed MW as weighted average of dimer and monomer; dimer to monomers
[8] = target: the molecule itself; test: AUC; sedimentation velocity, 1 mg/mL (36.5 μM) protein in 50 mM Tris-HCl, 300 mM NaCl, 3 mM NaN3, pH 8, 20°C, 50,000 RPM, c(s) distribution; dimer to monomers
[9] = reference: non-phosphorylated ζ

14-3-3ζ (from UniProt P63104) pζ (PKA co-expressed, purified pS58 form)
other: apparent MW (14-3-3ζ [1]; [9]): weaker; reference 56.4 | other: apparent MW (14-3-3ζ [2]; [9]): weaker; reference 54.5

14-3-3ζ WT (from UniProt P63104 1-245) (natural protein)
stoichiometry N (14-3-3ζ WT [3]): 2 | stoichiometry N (14-3-3ζ WT [4]): 2

14-3-3ζ L12E_M78K (from UniProt P63104 1-245) (natural protein)
Kd (14-3-3ζ L12E_M78K): 4600 µM

14-3-3ζ phosphorylated at Ser58 (from UniProt P63104 1-245) (natural protein)
Kd [5]: 7600 µM

14-3-3ζ (from UniProt P63104) ζ_S58E
other: apparent MW (14-3-3ζ [1]; reference: ζ wild type): same; reference 56.4 | other: apparent MW (14-3-3ζ [2]; reference: ζ wild type): weaker; reference 54.5

14-3-3ζ (from UniProt P63104) ζ_S58D
other: apparent MW (14-3-3ζ [1]; reference: ζ wild type): weaker; reference 56.4 | other: apparent MW (14-3-3ζ [2]; reference: ζ wild type): weaker; reference 54.5

14-3-3ζ (from UniProt P63104) ζ_S57D_S58D
other: apparent MW (14-3-3ζ [1]; reference: ζ wild type): weaker; reference 56.4 | other: apparent MW (14-3-3ζ [2]; reference: ζ wild type): weaker; reference 54.5

B1: ζ_S58E_Ntail, fluorescently labelled (natural protein)
chain: SVDACKGSSGGMDKNELVQKAKLAEQAERYDDMAAAMKSVTEQGAELSNEERNLLSVAYKNVVGARRSEWRVVSSIEQKTEGAEKKQQMAREYREKIETELRDICNDVLSLLEKFLIPNASQAESKVFYLKMKGDYYRYLAEVAAGDDKKGIVDQSQQAYQEAFEISKKEMQPTHPIRLGLALNFSVFYYEILNSPEKAASLAKTAFDEAIAELDTLSEESYKDSTLIMQLLRDNLTLWTSDTQGDEAEAGEGGEN
modifications: Cys5 (of the added N-terminal tail) labelled with AlexaFluor647-C5-maleimide (AF647) in one preparation and AlexaFluor488-C2-maleimide (AF488) in the other
Kd [6]: 0.35 ± 0.25 µM | koff (FRET; 15°C): 0.731 s⁻¹

B2: 14-3-3ζ S58D (natural protein, UniProt P63104 1-245, looked up)
chain: MDKNELVQKAKLAEQAERYDDMAAAMKSVTEQGAELSNEERNLLSVAYKNVVGARRSDWRVVSSIEQKTEGAEKKQQMAREYREKIETELRDICNDVLSLLEKFLIPNASQAESKVFYLKMKGDYYRYLAEVAAGDDKKGIVDQSQQAYQEAFEISKKEMQPTHPIRLGLALNFSVFYYEILNSPEKAASLAKTAFDEAIAELDTLSEESYKDSTLIMQLLRDNLTLWTSDTQGDEAEAGEGGEN
notes: 14-3-3ζ protein with C25A C189A and the phosphomimicking mutation S58D; source: E. coli BL21(DE3) CodonPlus RIL, purified (protocol of Hritz et al., 2014)
Kd [7]: 132 ± 7 µM

B3: 14-3-3ζ S57D_S58D (natural protein, UniProt P63104 1-245, looked up)
chain: MDKNELVQKAKLAEQAERYDDMAAAMKSVTEQGAELSNEERNLLSVAYKNVVGARRDDWRVVSSIEQKTEGAEKKQQMAREYREKIETELRDICNDVLSLLEKFLIPNASQAESKVFYLKMKGDYYRYLAEVAAGDDKKGIVDQSQQAYQEAFEISKKEMQPTHPIRLGLALNFSVFYYEILNSPEKAASLAKTAFDEAIAELDTLSEESYKDSTLIMQLLRDNLTLWTSDTQGDEAEAGEGGEN
notes: also called double phosphomimicking mutant; source: E. coli BL21(DE3) CodonPlus RIL, purified (protocol of Hritz et al., 2014)
Kd [7]: 348 ± 19 µM

B4: 14-3-3ζ S58E (natural protein, UniProt P63104 1-245, looked up)
chain: MDKNELVQKAKLAEQAERYDDMAAAMKSVTEQGAELSNEERNLLSVAYKNVVGARRSEWRVVSSIEQKTEGAEKKQQMAREYREKIETELRDICNDVLSLLEKFLIPNASQAESKVFYLKMKGDYYRYLAEVAAGDDKKGIVDQSQQAYQEAFEISKKEMQPTHPIRLGLALNFSVFYYEILNSPEKAASLAKTAFDEAIAELDTLSEESYKDSTLIMQLLRDNLTLWTSDTQGDEAEAGEGGEN
notes: 14-3-3ζ protein with C25A C189A and the phosphomimicking mutation S58E; source: E. coli BL21(DE3) CodonPlus RIL, purified (protocol of Hritz et al., 2014)
stoichiometry N [8]: 2
